{
  "source": "patent US11391726B2",
  "about": "“MoT cells as a therapeutic screening tool for regulatory t-cell activity” (ARIZONA BOARD OF REGENTS ON BEHALF OF ARIZONA STATE …, priority 2018, dated 2022)",
  "molecules": {"B1": {"name": "mogamulizumab (antibody, chains of the INN, looked up, V domains shown)", "VH": "EVQLVESGGDLVQPGRSLRLSCAASGFIFSNYGMSWVRQAPGKGLEWVATISSASTYSYYPDSVKGRFTISRDNAKNSLYLQMNSLRVEDTALYYCGRHSDGNFAFGYWGQGTLVTVSS", "VL": "DVLMTQSPLSLPVTPGEPASISCRSSRNIVHINGDTYLEWYLQKPGQSPQLLIYKVSNRFSGVPDRFSGSGSGTDFTLKISRVEAEDVGVYYCFQGSLLPWTFGQGTKVEIK"}},
  "key": {"[1]": {"test_system": "CD4+ PBMC", "test": "CFSE proliferation assay: Mabs co-incubated with CD3/28-stimulated CD4+ PBMC without MoT cells", "assay_type": "cell-based, human", "details": "no MoT cells (FIGS. 5C, 5E, 5G)", "protocol": "(§1) Suppression assays. After IRB approval at Arizona State University (protocol #0601000548), peripheral blood was collected from healthy donors. After Ficoll-Paque Plus gradient separation of the buffy coat, CD4+ cells were purified using EasySep Human CD4^+ T Cell Isolation Kit (Catalog #17952 from Stemcell Technologies). Cells were allowed to rest overnight in cIMDM at 37° C. prior to labeling with CFSE (Carboxyfluorescein succinimidyl ester, from Cayman Chemica cat #10009853) dye to track cell divisions. The following day, CD4^+ T cells were counted, stained with CFSE, washed in PBS and then plated in IMDM with 10% FBS at 3×10^5 cells per well in a 48-well plate coated with OKT3 antibody at 5.0 ug/mL for 2 hours at 37° C. then washed twice in PBS before adding soluble co-stimulatory anti-CD28 (eBioscience clone CD28.6) at 5.0 ug/mL final concentration.\n(FIG. 5A) Unstimulated PBMC. (FIG. 5B) CD3/28-stimulated CD4^+ PBMC cell division without MoT cells. (FIG. 5C) Anti-GITR, (FIG. 5E) Anti-CCR4 mogamulizumab, and (FIG. 5G) anti-PDL-1 (atezolizumab) co-incubated with PBMCs. (FIG. 5D) Anti-GITR, (FIG. 5F) anti-CCR4 (mogamulizumab), and (FIG. 5H) anti-PDL-1 (atezolizumab) co-incubated with PBMCs and MoT cells (1:½ ratio)."}, "[2]": {"test_system": "MoT cells", "test": "CFSE suppression assay: Mabs pre-incubated with MoT cells, then co-cultured with CD3/28-stimulated CD4+ PBMC", "assay_type": "cell-based, human", "details": "Mab pre-incubated with MoT cells 30 minutes, CD4+ PBMC:MoT ratio 1:1/2, CFSE flow cytometry (FIGS. 5D, 5F, 5H)", "protocol": "as §1\nIn some studies MoT and Jurkat cells were labeled with Cell Trace FarRed dye (Thermofisher) to gate MoT and Jurkat cells away from CD4^+ PBMC in flow cytometry analysis. Two-fold serial dilutions of MoT and Jurkat cells were added to CD4^+ PBMC, starting at 1.5×10^5 MoT and Jurkat cells (1:1/2 ratio CD4^+ T cells:tumor cells). Final volume per well was 1 mL. Cells were incubated for 5 days. […]"}},
  "data": [
    {"molecule": "B1", "values": [
      {"measurement": "suppression or inhibition of CD4+ PBMC proliferation by the Mab alone", "setting": "[1]", "result": "do not suppress or inhibit"},
      {"measurement": "reversal of MoT cell-mediated suppression of CD4+ PBMC proliferation", "setting": "[2]", "result": "None of the checkpoint inhibitor Mabs including anti-GITR reversed MoT cell-mediated suppression"},
      {"measurement": "reversal of MoT cell-mediated suppression of CD4+ PBMC proliferation", "setting": "[2]; listed as ant-CCR4", "result": "did not attenuate MoT Treg suppressive activity"}
    ]}
  ]
}
